Results from patent US20250388704A1 (Xencor, published 2025).

B1: XENP37902 (bispecific antibody)
heavy: EVQLVQSGAEVKKPGASVKVSCKTSGYTFTEYTIHWVRQAPGQSLEWMGNINPNNGGTTYNQKFQGRVTITVDKSTSTAYMELSSLRSEDTAVYYCAAGWNFDYWGQGTLVTVSSASTKGPSVFPLAPSSKSTSGGTAALGCLVKDYFPEPVTVSWNSGALTSGVHTFPAVLQSSGLYSLSSVVTVPSSSLGTQTYICNVNHKPSDTKVDKKVEPKSCDKTHTCPPCPAPPVAGPSVFLFPPKPKDTLMISRTPEVTCVVVDVKHEDPEVKFNWYVDGVEVHNAKTKPREEEYNSTYRVVSVLTVLHQDWLNGKEYKCKVSNKALPAPIEKTISKAKGQPREPQVYTLPPSREEMTKNQVSLTCDVSGFYPSDIAVEWESDGQPENNYKTTPPVLDSDGSFFLYSKLTVDKSRWEQGDVFSCSVMHEALHNHYTQKSLSLSPGK
scFv-Fc: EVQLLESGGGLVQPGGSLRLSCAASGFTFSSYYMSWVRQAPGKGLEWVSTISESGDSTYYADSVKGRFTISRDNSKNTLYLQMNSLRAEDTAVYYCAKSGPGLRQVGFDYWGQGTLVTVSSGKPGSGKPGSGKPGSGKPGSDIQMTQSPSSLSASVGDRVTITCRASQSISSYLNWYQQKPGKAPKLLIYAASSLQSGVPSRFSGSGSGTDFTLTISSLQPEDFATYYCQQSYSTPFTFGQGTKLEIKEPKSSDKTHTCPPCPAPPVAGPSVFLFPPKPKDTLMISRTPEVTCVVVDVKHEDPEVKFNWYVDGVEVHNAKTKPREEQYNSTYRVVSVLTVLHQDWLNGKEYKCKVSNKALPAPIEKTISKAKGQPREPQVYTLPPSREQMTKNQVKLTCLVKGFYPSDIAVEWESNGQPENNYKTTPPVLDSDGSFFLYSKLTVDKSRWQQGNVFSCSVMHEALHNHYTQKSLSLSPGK
light: DIVMTQSPDSLAVSLGERATLSCRASQDVGTAVDWYQQKPDQSPKLLIYWASTRHTGVPDRFTGSGSGTDFTLTISSLQAEDVAVYFCQQYNSYPLTFGAGTKVEIKRTVAAPSVFIFPPSDEQLKSGTASVVCLLNNFYPREAKVQWKVDNALQSGNSQESVTEQDSKDSTYSLSSTLTLSKADYEKHKVYACEVTHQGLSSPVTKSFNRGEC
notes: 1+1 Fab-scFv-Fc format; also called prototype PSMA x CD28 bsAb; 1A7_H1.14_L1
B2: XENP37903 (bispecific antibody)
heavy: EVQLVQSGAEVKKPGASVKVSCKTSGYTFTEYTIHWVRQAPGQSLEWMGNINPNNGGTTYNQKFQGRVTITVDKSTSTAYMELSSLRSEDTAVYYCAAGWNFDYWGQGTLVTVSSASTKGPSVFPLAPSSKSTSGGTAALGCLVKDYFPEPVTVSWNSGALTSGVHTFPAVLQSSGLYSLSSVVTVPSSSLGTQTYICNVNHKPSDTKVDKKVEPKSCDKTHTCPPCPAPPVAGPSVFLFPPKPKDTLMISRTPEVTCVVVDVKHEDPEVKFNWYVDGVEVHNAKTKPREEEYNSTYRVVSVLTVLHQDWLNGKEYKCKVSNKALPAPIEKTISKAKGQPREPQVYTLPPSREEMTKNQVSLTCDVSGFYPSDIAVEWESDGQPENNYKTTPPVLDSDGSFFLYSKLTVDKSRWEQGDVFSCSVMHEALHNHYTQKSLSLSPGK
scFv-Fc: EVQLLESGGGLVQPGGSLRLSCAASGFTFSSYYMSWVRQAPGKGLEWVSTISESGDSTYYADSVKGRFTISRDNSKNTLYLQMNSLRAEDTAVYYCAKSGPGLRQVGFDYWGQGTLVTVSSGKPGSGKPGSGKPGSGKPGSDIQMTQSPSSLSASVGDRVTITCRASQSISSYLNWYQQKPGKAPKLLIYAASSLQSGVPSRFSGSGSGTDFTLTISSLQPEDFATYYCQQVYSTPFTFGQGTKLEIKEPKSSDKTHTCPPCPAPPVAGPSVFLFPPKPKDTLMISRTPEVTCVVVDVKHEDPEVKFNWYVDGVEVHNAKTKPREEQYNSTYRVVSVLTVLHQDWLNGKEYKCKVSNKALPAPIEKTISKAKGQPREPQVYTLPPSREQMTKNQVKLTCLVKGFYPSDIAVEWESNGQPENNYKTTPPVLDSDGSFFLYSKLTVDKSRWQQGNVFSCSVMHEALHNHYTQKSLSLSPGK
light: DIVMTQSPDSLAVSLGERATLSCRASQDVGTAVDWYQQKPDQSPKLLIYWASTRHTGVPDRFTGSGSGTDFTLTISSLQAEDVAVYFCQQYNSYPLTFGAGTKVEIKRTVAAPSVFIFPPSDEQLKSGTASVVCLLNNFYPREAKVQWKVDNALQSGNSQESVTEQDSKDSTYSLSSTLTLSKADYEKHKVYACEVTHQGLSSPVTKSFNRGEC
notes: 1+1 Fab-scFv-Fc format; also called prototype PSMA x CD28 bsAb; 1A7_H1.14_L1.71
B3: PSMA x CD28 bsAb with D01v2 PSMA binding domain and 1A7_H1_L1.71 CD28 binding domain (Platform X) (bispecific antibody)
heavy: EVQLVESGGDLVQPGGSLRLSCAASGFTFNNYNMNWVRQAPGKGLEWVSHISTSSSNKYYADSVKGRFSISRDIAKNSMYLQMNSLRDEDTAVYYCAREGVGADYGDYYYYGMDVWGQGTTVTVSSASTKGPSVFPLAPSSKSTSGGTAALGCLVKDYFPEPVTVSWNSGALTSGVHTFPAVLQSSGLYSLSSVVTVPSSSLGTQTYICNVNHKPSDTKVDKKVEPKSCDKTHTCPPCPAPPVAGPSVFLFPPKPKDTLMISRTPEVTCVVVDVKHEDPEVKFNWYVDGVEVHNAKTKPREEEYNSTYRVVSVLTVLHQDWLNGKEYKCKVSNKALPAPIEKTISKAKGQPREPQVYTLPPSREEMTKNQVSLTCDVSGFYPSDIAVEWESDGQPENNYKTTPPVLDSDGSFFLYSKLTVDKSRWEQGDVFSCSVMHEALHNHYTQKSLSLSPGK
scFv-Fc: not shown
light: QSVLTQPASVSGSPGQSITISCTGTSSDVGGYNYVSWYQQHPGKAPKLMIYEVSNRPSGVSNRFSGSKSGNTASLTISGLQAEDEADYYCSSYTSSYTYVFGTGTKLTVLGQPKAAPSVTLFPPSSEELQANKATLVCLISDFYPGAVTVAWKADSSPVKAGVETTTPSKQSNNKYAASSYLSLTPEQWKSHRSYSCQVTHEGSTVEKTVAPTECS
notes: D01v2 is D01 with the degradation liabilities removed
B4: PSMA x CD28 bsAb with D01 PSMA binding domain and 1A7_H1_L1.71 CD28 binding domain (Platform X) (bispecific antibody)
heavy: EVQLVESGGDLVQPGGSLRLSCAASGFTFNNYNMNWVRQAPGKGLEWVSHISTSSSNKYYADSVKGRFSISRDIAKNSMYLQMNSLRDEDTAVYYCARDGVGADYGDYYYYGMDVWGQGTTVTVSSASTKGPSVFPLAPSSKSTSGGTAALGCLVKDYFPEPVTVSWNSGALTSGVHTFPAVLQSSGLYSLSSVVTVPSSSLGTQTYICNVNHKPSDTKVDKKVEPKSCDKTHTCPPCPAPPVAGPSVFLFPPKPKDTLMISRTPEVTCVVVDVKHEDPEVKFNWYVDGVEVHNAKTKPREEEYNSTYRVVSVLTVLHQDWLNGKEYKCKVSNKALPAPIEKTISKAKGQPREPQVYTLPPSREEMTKNQVSLTCDVSGFYPSDIAVEWESDGQPENNYKTTPPVLDSDGSFFLYSKLTVDKSRWEQGDVFSCSVMHEALHNHYTQKSLSLSPGK
scFv-Fc: not shown
light: QSVLTQPASVSGSPGQSITISCTGTSSDVGGYNYVSWYQQHPGKAPKLMIYEVSNRPSGVSNRFSGSKSGNTASLTISGLQAEDEADYYCSSYTSSYTYVFGTGTKLTVLGQPKAAPSVTLFPPSSEELQANKATLVCLISDFYPGAVTVAWKADSSPVKAGVETTTPSKQSNNKYAASSYLSLTPEQWKSHRSYSCQVTHEGSTVEKTVAPTECS
B5: XENP39234 PSMA (A10v2) x CD28 (37 nM) (bispecific antibody)
heavy: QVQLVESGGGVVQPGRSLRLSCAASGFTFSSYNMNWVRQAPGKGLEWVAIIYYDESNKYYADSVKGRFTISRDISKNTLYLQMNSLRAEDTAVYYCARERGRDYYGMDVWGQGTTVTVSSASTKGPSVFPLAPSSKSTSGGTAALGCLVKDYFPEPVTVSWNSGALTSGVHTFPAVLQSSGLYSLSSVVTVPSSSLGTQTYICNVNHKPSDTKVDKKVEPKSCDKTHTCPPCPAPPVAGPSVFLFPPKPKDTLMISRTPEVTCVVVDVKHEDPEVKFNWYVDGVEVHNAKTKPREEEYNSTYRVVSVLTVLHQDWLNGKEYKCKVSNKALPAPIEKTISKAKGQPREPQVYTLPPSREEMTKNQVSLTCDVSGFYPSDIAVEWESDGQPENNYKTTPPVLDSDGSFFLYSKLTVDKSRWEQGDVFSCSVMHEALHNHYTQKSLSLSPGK
scFv-Fc: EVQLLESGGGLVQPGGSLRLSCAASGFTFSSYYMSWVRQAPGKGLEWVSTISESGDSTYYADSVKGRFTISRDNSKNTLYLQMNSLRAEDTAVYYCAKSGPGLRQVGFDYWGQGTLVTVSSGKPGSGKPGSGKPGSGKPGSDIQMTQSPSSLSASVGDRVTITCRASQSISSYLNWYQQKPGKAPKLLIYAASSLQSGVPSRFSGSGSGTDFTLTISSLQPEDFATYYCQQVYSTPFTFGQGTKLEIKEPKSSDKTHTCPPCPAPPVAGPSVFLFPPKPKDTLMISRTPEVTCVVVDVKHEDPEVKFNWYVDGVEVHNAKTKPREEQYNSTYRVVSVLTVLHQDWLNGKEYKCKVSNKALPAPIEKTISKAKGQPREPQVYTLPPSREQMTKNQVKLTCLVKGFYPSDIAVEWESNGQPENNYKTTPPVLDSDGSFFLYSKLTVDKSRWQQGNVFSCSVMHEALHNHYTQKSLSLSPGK
light: SYELMQPPSVSVSPGQTARITCSGDALPKQYAYWYQQKPGQAPVLVIYKDSERPSGIPVRFSGSSSGTTVTLTITGVQAEDEADYYCQSADSSGTYVFGTGTKVTVLGQPKAAPSVTLFPPSSEELQANKATLVCLISDFYPGAVTVAWKADSSPVKAGVETTTPSKQSNNKYAASSYLSLTPEQWKSHRSYSCQVTHEGSTVEKTVAPTECS
notes: Member of group m19
B6: C28PB318.002 PSMA (A10v2) x CD28 (96 nM) (bispecific antibody)
scFv-Fc: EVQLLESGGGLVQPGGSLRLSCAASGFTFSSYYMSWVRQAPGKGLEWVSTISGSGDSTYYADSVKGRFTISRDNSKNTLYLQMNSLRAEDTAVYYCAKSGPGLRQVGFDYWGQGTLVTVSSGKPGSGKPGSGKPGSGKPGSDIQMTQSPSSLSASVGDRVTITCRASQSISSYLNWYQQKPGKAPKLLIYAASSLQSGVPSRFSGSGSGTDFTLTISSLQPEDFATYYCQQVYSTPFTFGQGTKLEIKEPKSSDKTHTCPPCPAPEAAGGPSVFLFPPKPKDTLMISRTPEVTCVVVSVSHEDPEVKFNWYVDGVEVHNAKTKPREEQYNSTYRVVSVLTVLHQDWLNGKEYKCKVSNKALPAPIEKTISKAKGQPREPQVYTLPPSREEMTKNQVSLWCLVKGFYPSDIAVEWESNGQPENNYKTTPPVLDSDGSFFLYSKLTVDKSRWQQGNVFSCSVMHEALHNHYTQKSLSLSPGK
heavy: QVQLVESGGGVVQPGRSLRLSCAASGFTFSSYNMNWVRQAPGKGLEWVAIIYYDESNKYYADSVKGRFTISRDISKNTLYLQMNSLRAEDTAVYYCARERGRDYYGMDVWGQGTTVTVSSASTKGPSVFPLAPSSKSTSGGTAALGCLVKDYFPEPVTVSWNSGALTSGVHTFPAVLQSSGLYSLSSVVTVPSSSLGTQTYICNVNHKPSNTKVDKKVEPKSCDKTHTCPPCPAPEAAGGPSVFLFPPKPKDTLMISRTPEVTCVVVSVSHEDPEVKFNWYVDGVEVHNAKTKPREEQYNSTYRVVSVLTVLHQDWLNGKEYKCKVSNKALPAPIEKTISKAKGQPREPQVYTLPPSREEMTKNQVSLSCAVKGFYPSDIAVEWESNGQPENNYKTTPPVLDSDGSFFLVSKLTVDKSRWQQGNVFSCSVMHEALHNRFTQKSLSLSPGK
light: SYELMQPPSVSVSPGQTARITCSGDALPKQYAYWYQQKPGQAPVLVIYKDSERPSGIPVRFSGSSSGTTVTLTITGVQAEDEADYYCQSADSSGTYVFGTGTKVTVLGQPKAAPSVTLFPPSSEELQANKATLVCLISDFYPGAVTVAWKADSSPVKAGVETTTPSKQSNNKYAASSYLSLTPEQWKSHRSYSCQVTHEGSTVEKTVAPTECS
B7: XENP39233 PSMA (A10v2) x CD28 (96 nM) (bispecific antibody)
heavy: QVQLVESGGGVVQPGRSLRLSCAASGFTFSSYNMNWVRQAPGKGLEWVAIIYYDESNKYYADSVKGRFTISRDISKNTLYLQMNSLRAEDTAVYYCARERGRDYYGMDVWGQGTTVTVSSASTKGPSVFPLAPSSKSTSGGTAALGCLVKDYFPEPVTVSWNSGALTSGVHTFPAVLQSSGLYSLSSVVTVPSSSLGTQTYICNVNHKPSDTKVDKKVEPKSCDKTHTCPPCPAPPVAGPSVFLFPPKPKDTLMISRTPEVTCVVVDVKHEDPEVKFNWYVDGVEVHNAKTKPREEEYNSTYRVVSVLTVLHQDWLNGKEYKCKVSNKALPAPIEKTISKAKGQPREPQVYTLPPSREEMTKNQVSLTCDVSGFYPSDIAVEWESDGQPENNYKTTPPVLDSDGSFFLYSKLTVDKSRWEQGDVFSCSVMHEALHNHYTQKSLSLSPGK
scFv-Fc: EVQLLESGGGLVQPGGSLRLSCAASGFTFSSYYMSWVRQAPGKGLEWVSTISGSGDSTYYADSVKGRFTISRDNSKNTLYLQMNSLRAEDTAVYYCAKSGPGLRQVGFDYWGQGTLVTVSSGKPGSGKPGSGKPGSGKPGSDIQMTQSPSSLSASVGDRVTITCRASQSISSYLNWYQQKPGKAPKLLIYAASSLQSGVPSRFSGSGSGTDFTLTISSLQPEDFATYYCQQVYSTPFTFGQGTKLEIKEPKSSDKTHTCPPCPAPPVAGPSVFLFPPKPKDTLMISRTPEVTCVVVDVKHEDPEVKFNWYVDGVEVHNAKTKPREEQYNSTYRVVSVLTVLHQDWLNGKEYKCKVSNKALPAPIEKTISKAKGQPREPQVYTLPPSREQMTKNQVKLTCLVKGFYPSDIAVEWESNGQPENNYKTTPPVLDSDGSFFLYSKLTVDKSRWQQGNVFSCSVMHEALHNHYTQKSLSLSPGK
light: SYELMQPPSVSVSPGQTARITCSGDALPKQYAYWYQQKPGQAPVLVIYKDSERPSGIPVRFSGSSSGTTVTLTITGVQAEDEADYYCQSADSSGTYVFGTGTKVTVLGQPKAAPSVTLFPPSSEELQANKATLVCLISDFYPGAVTVAWKADSSPVKAGVETTTPSKQSNNKYAASSYLSLTPEQWKSHRSYSCQVTHEGSTVEKTVAPTECS
notes: Member of group m19
B8: C28PB330.002 PSMA (A10v2) x CD28 (180 nM) (bispecific antibody)
first monomer: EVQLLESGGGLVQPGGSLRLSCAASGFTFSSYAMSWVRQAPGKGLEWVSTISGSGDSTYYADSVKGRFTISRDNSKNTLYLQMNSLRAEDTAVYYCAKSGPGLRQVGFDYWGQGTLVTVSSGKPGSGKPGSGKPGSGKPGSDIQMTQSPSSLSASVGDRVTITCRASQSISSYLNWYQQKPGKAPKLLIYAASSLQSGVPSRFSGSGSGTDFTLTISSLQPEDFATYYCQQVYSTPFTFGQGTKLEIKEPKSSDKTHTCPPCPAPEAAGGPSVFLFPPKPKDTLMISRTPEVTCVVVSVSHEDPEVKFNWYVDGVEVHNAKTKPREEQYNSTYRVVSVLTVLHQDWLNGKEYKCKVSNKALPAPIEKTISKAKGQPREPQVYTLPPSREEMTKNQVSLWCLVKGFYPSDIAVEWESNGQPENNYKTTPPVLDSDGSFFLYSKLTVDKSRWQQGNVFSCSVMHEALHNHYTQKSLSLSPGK
second monomer: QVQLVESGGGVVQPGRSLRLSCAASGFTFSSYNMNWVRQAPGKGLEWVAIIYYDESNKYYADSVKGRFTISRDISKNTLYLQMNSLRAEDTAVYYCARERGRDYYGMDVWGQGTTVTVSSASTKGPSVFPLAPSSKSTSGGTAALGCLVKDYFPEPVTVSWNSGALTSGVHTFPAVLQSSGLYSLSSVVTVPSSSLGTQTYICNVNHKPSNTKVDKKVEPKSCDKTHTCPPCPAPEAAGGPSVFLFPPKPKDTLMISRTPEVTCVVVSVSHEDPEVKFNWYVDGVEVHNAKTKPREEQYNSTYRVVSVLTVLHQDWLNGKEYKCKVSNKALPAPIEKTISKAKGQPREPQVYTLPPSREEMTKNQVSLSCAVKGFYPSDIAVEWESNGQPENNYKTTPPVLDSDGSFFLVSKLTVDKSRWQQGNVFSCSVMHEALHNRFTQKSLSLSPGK
light chain: SYELMQPPSVSVSPGQTARITCSGDALPKQYAYWYQQKPGQAPVLVIYKDSERPSGIPVRFSGSSSGTTVTLTITGVQAEDEADYYCQSADSSGTYVFGTGTKVTVLGQPKAAPSVTLFPPSSEELQANKATLVCLISDFYPGAVTVAWKADSSPVKAGVETTTPSKQSNNKYAASSYLSLTPEQWKSHRSYSCQVTHEGSTVEKTVAPTECS
B9: C28PB294.002 PSMA (A10v2) x CD28 (37 nM) (bispecific antibody)
scFv-Fc: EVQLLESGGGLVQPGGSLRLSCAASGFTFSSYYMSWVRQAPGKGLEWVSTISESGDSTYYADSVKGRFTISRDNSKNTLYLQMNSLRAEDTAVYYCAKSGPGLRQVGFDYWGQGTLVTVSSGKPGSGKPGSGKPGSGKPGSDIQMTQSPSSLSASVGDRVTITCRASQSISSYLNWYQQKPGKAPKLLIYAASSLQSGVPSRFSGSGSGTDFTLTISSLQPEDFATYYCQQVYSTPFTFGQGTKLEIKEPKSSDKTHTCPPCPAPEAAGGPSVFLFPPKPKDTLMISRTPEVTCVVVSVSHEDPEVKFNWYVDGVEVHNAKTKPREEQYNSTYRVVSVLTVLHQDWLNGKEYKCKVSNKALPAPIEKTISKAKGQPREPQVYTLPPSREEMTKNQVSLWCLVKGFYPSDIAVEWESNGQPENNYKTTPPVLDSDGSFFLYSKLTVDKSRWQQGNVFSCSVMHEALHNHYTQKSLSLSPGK
heavy: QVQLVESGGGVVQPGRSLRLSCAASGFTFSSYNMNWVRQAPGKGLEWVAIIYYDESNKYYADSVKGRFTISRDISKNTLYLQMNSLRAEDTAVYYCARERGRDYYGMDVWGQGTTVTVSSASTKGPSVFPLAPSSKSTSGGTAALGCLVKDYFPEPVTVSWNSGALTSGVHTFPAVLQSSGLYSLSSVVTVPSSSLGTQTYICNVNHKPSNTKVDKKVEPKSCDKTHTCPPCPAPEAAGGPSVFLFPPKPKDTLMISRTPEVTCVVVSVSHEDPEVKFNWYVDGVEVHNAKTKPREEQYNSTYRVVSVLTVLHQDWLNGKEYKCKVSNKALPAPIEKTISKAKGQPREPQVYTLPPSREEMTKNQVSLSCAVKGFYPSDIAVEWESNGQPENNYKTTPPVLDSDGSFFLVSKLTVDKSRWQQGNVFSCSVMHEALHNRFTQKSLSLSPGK
light: SYELMQPPSVSVSPGQTARITCSGDALPKQYAYWYQQKPGQAPVLVIYKDSERPSGIPVRFSGSSSGTTVTLTITGVQAEDEADYYCQSADSSGTYVFGTGTKVTVLGQPKAAPSVTLFPPSSEELQANKATLVCLISDFYPGAVTVAWKADSSPVKAGVETTTPSKQSNNKYAASSYLSLTPEQWKSHRSYSCQVTHEGSTVEKTVAPTECS
B10: XENP28428 (antibody, V domains shown)
VH: EVQLLESGGGLVQPGGSLRLSCAASGFTFSSYAMSWVRQAPGKGLEWVSTISGSGDSTYYADSVKGRFTISRDNSKNTLYLQMNSLRAEDTAVYYCAKSGPGLRQVGFDYWGQGTLVTVSS
VL: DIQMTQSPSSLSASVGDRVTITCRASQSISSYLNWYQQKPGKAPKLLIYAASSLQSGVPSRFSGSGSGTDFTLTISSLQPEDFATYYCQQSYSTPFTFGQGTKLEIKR
notes: Bivalent IgG1 mAb with Fc gamma R ablation variants, made in HEK293E; also called anti-CD28 mAb based on clone 1A7; parental anti-CD28 mAb 1A7; copies: 2 + 2
B11: XENP38934 PSMA (F02) x CD28 (180nM) (bispecific antibody)
heavy: EVQLLESGPGLVKPSETLSLTCTVSGGSIISYYWSWIRQPAGKGLEWIGRIYSSGSTNYNPSLKSRVTMSVDTSKNQFSLKLSSVTAADTAVYYCAKVGVWPGAFDIWGQGTMVTVSSASTKGPSVFPLAPSSKSTSGGTAALGCLVKDYFPEPVTVSWNSGALTSGVHTFPAVLQSSGLYSLSSVVTVPSSSLGTQTYICNVNHKPSDTKVDKKVEPKSCDKTHTCPPCPAPPVAGPSVFLFPPKPKDTLMISRTPEVTCVVVDVKHEDPEVKFNWYVDGVEVHNAKTKPREEEYNSTYRVVSVLTVLHQDWLNGKEYKCKVSNKALPAPIEKTISKAKGQPREPQVYTLPPSREEMTKNQVSLTCDVSGFYPSDIAVEWESDGQPENNYKTTPPVLDSDGSFFLYSKLTVDKSRWEQGDVFSCSVMHEALHNHYTQKSLSLSPGK
scFv-Fc: not shown
light: not shown
notes: copies: 1 + 1 + 1
B12: PSMA x CD28 bsAb with A11 PSMA binding domain and 1A7_H1_L1.71 CD28 binding domain (Platform X) (bispecific antibody)
heavy: QVQLQESGGDVVQPGRSLRLSCAASGFSFSGYGLHWVRQAPGRGLEWVTLISYDGSNKYYADSVKGRFTISRDNSKNTLYLQMNSLRAEDTAVYYCAKTTVSDPYYYGMDVWGQGTTVTVSSASTKGPSVFPLAPSSKSTSGGTAALGCLVKDYFPEPVTVSWNSGALTSGVHTFPAVLQSSGLYSLSSVVTVPSSSLGTQTYICNVNHKPSDTKVDKKVEPKSCDKTHTCPPCPAPPVAGPSVFLFPPKPKDTLMISRTPEVTCVVVDVKHEDPEVKFNWYVDGVEVHNAKTKPREEEYNSTYRVVSVLTVLHQDWLNGKEYKCKVSNKALPAPIEKTISKAKGQPREPQVYTLPPSREEMTKNQVSLTCDVSGFYPSDIAVEWESDGQPENNYKTTPPVLDSDGSFFLYSKLTVDKSRWEQGDVFSCSVMHEALHNHYTQKSLSLSPGK
scFv-Fc: not shown
light: SYELTQPPSVSVAPGQTARITCGGNNIGSKSVHWYQQKPGQAPVLVVYDDSDRPSGIPERFSGTNSGNTATLTISRAEAGDEADYYCQVWDSSSDHVVFGGGTKLTVLGQPKAAPSVTLFPPSSEELQANKATLVCLISDFYPGAVTVAWKADSSPVKAGVETTTPSKQSNNKYAASSYLSLTPEQWKSHRSYSCQVTHEGSTVEKTVAPTECS
B13: XENP38938 PSMA (F07) x CD28 (180nM) (bispecific antibody)
heavy: not shown
scFv-Fc: not shown
light: SYELTQPPSVSVAPGQTARITCGGNNIGSKSVHWYQQKPGQAPVLVVYDDSDRPSGIPERFSGSNSGNTATLTISRVEAGDEADYYCQVWDSSTDHVVFGGGTKLTVLGQPKAAPSVTLFPPSSEELQANKATLVCLISDFYPGAVTVAWKADSSPVKAGVETTTPSKQSNNKYAASSYLSLTPEQWKSHRSYSCQVTHEGSTVEKTVAPTECS
notes: copies: 1 + 1 + 1

Assays:
[1] = target: T1, CD28 antigen used for the affinity determinations (human, UniProt P10747 19-152, limits assumed); assay: CD28 binding affinity of the scFv arm (monovalent, scFv in 1+1 Fab-scFv-Fc bsAb, FIG. 20); method not stated
T1 construct: Octet/BLI is described only for the bivalent mAbs

[2] = target: T2, human PSMA on the surface of prostate cancer cell lines (C42B / C42B-NLR, 22Rv1 / 22Rv1-NLR, PSMA-transfected … (human, UniProt Q04609 1-750)); assay: flow cytometry on C42B-NLR (PSMA hi) cells, 30 min at 37 degrees, detection with anti-human-Ig-FITC
T2 construct: whole, on cells; also called Prostate Specific Membrane Antigen

[3] = target: T2, human PSMA on the surface of prostate …; assay: binding to C4-2B (C42B, PSMA^hi) cells, MFI against concentration, least squares fit
[4] = target: T1, CD28 antigen used for the affinity …; assay: Octet (BLI), apparent dissociation constant (KDapp) of the bivalent mAb for CD28

Row | Binder | binding result [2] | EC50 (read off the curve) [3] [nM] | further results
1 | B1 |  |  | Kd [1]: 230 nM
2 | B2 |  |  | Kd [1]: 37 nM
3 | B3 | binds |  | 
4 | B4 | binds |  | 
5 | B5 |  | ~3 | 
6 | B6 |  | ~2 | 
7 | B7 |  | ~2 | 
8 | B8 |  | ~3 | 
9 | B9 |  | ~3 | 
10 | B10 |  |  | Kd [4]: 14.5 nM
11 | B11 | binds |  | 
12 | B12 | binds |  | 
13 | B13 | binds |  | 
